From patent publication US8691772B2, “HSP60, HSP60 peptides and T cell vaccines for immunomodulation” (Yeda Research and Development Co. Ltd., priority 2005, dated 2014)

Columns and labels:
human T cells = assay: Cytokine secretion of anti-CD3-activated purified human T cells
Experimental: Human T cells. T cells were purified from the peripheral blood of healthy human donors (Blood Bank; Tel-Hashomer, Israel). The whole blood was incubated (20 min, 22° C.) with RosetteSep™ human T-cell enrichment cocktail (StemCell Technologies, Vencouver, BC, Canada). The remaining unsedimented cells were then loaded onto Lymphocyte Separation Medium (ICN Biomedicals; Belgium), isolated by density centrifugation, and washed with PBS. The purified cells (>95% CD3^+ T cells) so obtained were cultured in RPMI containing antibiotics and 10% heat-inactivated FCS.
Cytokine secretion. T cells (2×10^6 cells per ml) were activated (1 hr, 37° C.) with the indicated concentrations of HSP60 in 24-well plates in RPMI containing 10% heat-inactivated FCS. The cells were then washed and re-plated at the same concentration on anti-CD3 mAb pre-coated 24-well plates (0.5 μg/ml; non tissue culture grade plates) in serum free medium containing 0.1% BSA at 4° C. for 24 hr. The supernatants were collected, and the cytokine content (TNF-α, IFN-γ, and IL-10) was determined by ELISA, using the appropriate mAb, according to the manufacturer's instructions.

T-bet and GATA-3 = T-bet and GATA-3 expression in human T cells; format: cell-based
Experimental: Western blot analysis of T-cell nuclear extracts. Purified T cells (5×10^6) were preincubated with different concentrations of HSP60 for the indicated periods of time (37° C. in a 7% CO2, humidified atmosphere). […] T cells were lysed in 10 mM HEPES, 1.5 mM MgCl2, 1 mM dithiothreitol (DTT), 1 mM PMSF, 0.5% Nonidet P-40. The lysates were incubated on ice for 10 min and centrifuged at 2000 rpm for 10 min at 4° C. The supernatants (cytoplasmic extracts) were transferred and the pellet (nuclei) was suspended in buffer containing 30 mM HEPES, 450 mM NaCl, 25% Glycerol, 0.5 mM EDTA, 6 mM DTT, 12 mM MgCl2 1 mM PMSF, 10 μg/ml leupeptin, 10 μg/ml pepstatin, 1% phosphatase inhibitor cocktail, and the suspension was incubated on ice for 30 min. The lysates were cleared by centrifugation (30 min, 14×10^3 rpm, 4° C.), and the resulting supernatants analyzed for protein content. For NFATp analysis nuclear extracts were prepared with a NE-PER Nuclear and Cytoplasmic Extraction reagent (Pierce, Rockford, Ill.) according to the manufacturer's protocol. Sample buffer was then added and, after boiling, the samples, containing equal amounts of proteins, were separated on 10% SDS-PAGE gel and transferred to nitrocellulose membranes. The membranes were blocked with TBST buffer containing low-fat milk (5%), Tris pH 7.5 (20 mM), NaCl (135 mM) and Tween 20 (0.1%), and probed with the following mAb in the same buffer: anti-NF-κb (diluted 1:1000), anti-total (t) ERK (diluted 1:20,000), anti-NFATp (diluted 1:500), anti T-bet (diluted 1:1000), anti-GATA-3 (diluted 1:1000), anti-Lamin B (diluted 1:1000). Immunoreactive protein bands were visualized using labeled secondary antibodies and the enhanced ECL system.

SOCS3 = SOCS3 expression in human T cells (immunoblot); format: cell-based
[1] = test system: human CD3^+, CD4^+, and CD8^+ T cells; assay: Cytokine secretion of anti-CD3-activated CD3+, CD4+, CD8+ and CD25-separated T cells; format: cell-based; conditions: for secretion of IL-10 and TGF-β: anti-CD3
From the text: Purified T-cell populations. […] In a second round of purification, CD4^+ T cells were separated to CD25^− and CD25^+ populations with magnetically coupled mAb against human CD25 (Miltenyi Biotec; Bergisch Gladbach, Germany).

[2] = 1 ng/ml and 1 μg/ml, no anti-CD3
[3] = CD3+ and CD4+ T cells pre-treated 2 hours, washed, anti-CD3 24 hr

B1: HSP60: recombinant human heat shock protein 60 (StressGen Biotechnologies) (protein)
chain: AKDVKFGADARALMLQGVDLLADAVAVTMGPKGRTVIIEQSWGSPKVTKDGVTVAKSIDLKDKYKNIGAKLVQDVANNTNEEAGDGTTTATVLARSIAKEGFEKISKGANPVEIRRGVMLAVDAVIAELKKQSKPVTTPEEIAQVATISANGDKEIGNIISDAMKKVGRKGVITVKDGKTLNDELEIIEGMKFDRGYISPYFINTSKGQKCEFQDAYVLLSEKKISSIQSIVPALEIANAHRKPLVIIAEDVDGEALSTLVLNRLKVGLQVVAVKAPGFGDNRKNQLKDMAIATGGAVFGEEGLTLNLEDVQPHDLGKVGEVIVTKDDAMLLKGKGDKAQIEKRIQEIIEQLDVTTSEYEKEKLNERLAKLSDGVAVLKVGGTSDVEVNEKKDRVTDALNATRAAVEEGIVLGGGCALLRCIPALDSLTPANEDQKIGIEIIKRTLKIPAMTIAKNAGVEGSLIVEKIMQSSSEVGYDAMAGDFVNMVEKGIIDPTKVVRTALLDAAGVASLLTTAEVVVTEIPKEEKDPGMGAMGGMGGGMGGGMF
Human T cells
  effect on cytokine secretion at doses in the order of 10 ng/ml: did not appear to affect cytokine secretion
  secretion of IL-4 and IL-13: increases the secretion
Human T cells; HSP60 alone
  cytokine secretion without anti-CD3: did not induce cytokine secretion from the T cells
Human T cells; P<0.05
  higher concentrations at which cytokine secretion was again affected: 0.1 to 1 µg/mL
  low concentrations with significant effects on cytokine secretion: 0.1 to 1.0 ng/mL
T-bet and GATA-3; 1 ng/ml and 1 μg/ml, 1 hr pre-treatment
  T-bet expression induced by anti-CD3: significantly (P<0.05) inhibited the T-bet expression induced by the anti-CD3
T-bet and GATA-3; [2]
  protein level of GATA-3: significantly (P<0.01) up-regulated the protein level of GATA-3
  protein level of T-bet: but not of T-bet
T-bet and GATA-3; 1 hr pre-incubation
  GATA-3 expression with anti-CD3: significantly up-regulated the expression level of GATA-3
SOCS3; 1 ng/ml
  time at which SOCS3 activation was apparent: 30 min
  time of peak SOCS3 activation: 1 to 2 h
SOCS3; biphasic dose-response curve
  HSP60 concentrations of maximal SOCS3 activation: 1 ng/mL and 1000 ng/mL
SOCS3; human T cells, 1 hr, 0-1000 ng/ml
  expression of SOCS3: activated the expression of SOCS3 (P<0.05)
[1]
  effect on cytokine secretion at doses in the order of 10 ng/ml: did not affect cytokine secretion
[1]; 1 ng/ml, 2 hours, anti-CD3 24 hours
  inhibition of IFN-γ and TNF-α secretion in purified CD4+CD25- T cells: completely prevented the inhibition of IFN-γ and TNF-α secretion by HSP60 treatment
[1]; [3]
  enhancement of IL-10 secretion: 2-3 fold
  inhibition of anti-CD3-induced IFN-γ secretion: about 50%
  inhibition of anti-CD3-induced TNF-α secretion: about 50%
[1]; CD4+CD25- T cells, 1 ng/ml
  secretion of IL-10 and TGF-β: but not of CD4^+CD25^− T cells
[1]; HSP60 alone, 0.01-1000 ng/ml
  cytokine secretion without anti-CD3: did not induce cytokine secretion by the T cells
[1]; P<0.05
  higher concentrations at which cytokine secretion was again affected significantly: 0.1-1 μpg/ml
  low concentrations with significant effects on cytokine secretion: 0.1 to 1.0 ng/mL
[1]; anti-CD3-activated
  cytokine secretion of CD8+ T cells: unresponsive to HSP60 at all concentrations tested
[1]; un-separated CD4+ or CD4+CD25+ T cells, 1 ng/ml
  secretion of IL-10 and TGF-β: significantly up-regulated the secretion of IL-10 and TGF-β
